Source: patent US20240024520A1, “AUTONOMOUS KNOB DOMAIN PEPTIDES” (UCB BIOPHARMA SRL, priority 2020, published 2024)

Tests used:
C5 [1] = target: T1, C5 (Homo sapiens, UniProt P01031); details: C5 coated directly and biotinylated C5 captured on streptavidin; OD 630 nm
C3 protein = C3 protein (Homo sapiens, UniProt P01024); details: C3 coated directly and biotinylated C3 captured on streptavidin; OD 630 nm
C5 [2] = target: T1, C5; assay: Biacore (SPR) single-cycle kinetics on immobilised C5; assay type: binding; details: C5 binding, Biacore, n = 3 independent experiments; for Mean Koff: in 1/s
Procedure: Binding to C5 was measured using surface plasmon resonance (SPR) single-cycle kinetics as described below.
Biacore single-cycle kinetics. Using a Biacore 8K (GE Healthcare), C5 was immobilized on a CM5 chip by amine coupling. Flow cells were activated using EDC/NHS (flow rate, 10 μL/min; contact time, 30 s). C5, at 1 μg/mL in pH 4.5 Sodium-acetate buffer, was immobilized on flow cell two only (flow rate, 10 μL/min; contact time, 420 s). Finally, ethanolamine was applied to both flow cells (flow rate, 10 μL/min; contact time, 420 s). A final immobilization level of approximately 2,000 response units was obtained.
Single-cycle kinetics were measured using titrations in HBS-EP buffer. A high flow rate of 40 μL/min was used, with a contact time of 230 s and a dissociation time of 900 s. Binding to the reference surface was subtracted, and the data were fitted to a single-site binding model using Biacore evaluation software.
We measured individual rate constants (kon and koff) and equilibrium dissociation constants (KD) for knob domain peptides binding to C5 by the Biacore single-cycle kinetics method described above.
We used SPR single cycle kinetics to measure binding to human C5 protein.

[3] = target: human complement component C3 (Homo sapiens, UniProt P01024); assay: SPR binding / counter screen on complement component C3; details: Biacore, n = 3 independent experiments
From the text: The PGT121-knob domain fusion proteins were counter screened for binding to human complement component C3. C3 is the closest human homologue to C5, sharing a conserved fold and a sequence homology of 26.5%.
We measured binding to C3 and C5 by SPR multi-cycle kinetics and we report full binding kinetics and equilibrium dissociation constants (KD) for binding to both proteins.

C5 [4] = target: T1, C5; assay: Monoclonal phage screening ELISA, human C5; assay type: binding; details: anti-C5 ultralong CDR-H3; binder = OD>0.2 AU
Procedure: (§1) For the C5 libraries, a single round of enrichment was performed with either human or rat C5 protein. […] Phage were blocked for 30 minutes. Biotinylated antigen was added to the blocked phage at a concentration of 100 nM and incubated at room temperature with mixing.
(§2) Colonies were picked into a 96-well culture plate containing selective medium 2TY supplemented with 1% Glucose and 100 μg/ml Carbenicillin and was incubated at 37° C. until wells reached mid-log phase of growth prior to addition of M13K07 helper phage. The block was incubated without shaking for 1 hour to achieve infection and phage production using continued culture in selective media supplemented with 50 μg/ml Kanamycin and 100 μg/ml Carbenicillin.
Binding to antigen was assessed by monoclonal phage ELISA, 96-well flat bottom Nunc MaxiSorp plates (Thermofisher) were coated with a 2.5 μg/ml solution of human, mouse, or rat serum albumin, human C5 or mouse C5 diluted with PBS, and left overnight at 4° C. Negative control plate and Anti-myc tag plate were also prepared.
Monoclonal phage rescue supernatants were blocked with an equal volume of a 2% milk (w/v) in PBS, for serum albumin proteins, or 2% BSA and 2% milk (w/v) in PBS solution. The coating solution was removed from coated Nunc plates and each plate was blocked with 1% BSA in PBS (for C5 libraries) or 1% milk powder (for albumin library). Both phage and Nunc plates were blocked for 1 hour at room temperature. Nunc plates were washed using a 96-well microplate washer (BioTek) with a PBS solution contain 0.1% Tween20 (Sigma Aldrich). 100 of blocked phage solution was added to each well of Nunc MaxiSorp plate and left shaking at room temperature for 1 hour. Plates were washed and dried as previously described. 100 of an Anti-M13-Horse radish peroxidase conjugated antibody (GE Healthcare) diluted (1:5,000) in a 1% BSA or milk solution was added to each well and left shaking at room temperature for 1 hour. Plates were washed again and 50 μL of TMB solution (Merck Millipore) was added to each well. Plates were left shaking for 10 minutes. Absorbance was measured at 630 nm and 490 nm. Binding signals were obtained where Absorbance at 630 nm was >3-times the signal upon irrelevant antigen.
By monoclonal phage ELISA the following ultralong CDR-H3 sequences were identified as binders (OD>0.2 AU): […]

rat C5 protein = rat C5 protein (Rattus norvegicus, UniProt P08650); assay: Monoclonal phage screening ELISA, rat C5; assay type: binding; details: anti-C5 ultralong CDR-H3; binder = OD>0.2 AU
Procedure: as §1, §2
[…] Negative control plate and Anti-myc tag plate were also prepared.
Monoclonal phage rescue supernatants were blocked with an equal volume of a 2% milk (w/v) in PBS, for serum albumin proteins, or 2% BSA and 2% milk (w/v) in PBS solution. The coating solution was removed from coated Nunc plates and each plate was blocked with 1% BSA in PBS (for C5 libraries) or 1% milk powder (for albumin library). Both phage and Nunc plates were blocked for 1 hour at room temperature. […] Absorbance was measured at 630 nm and 490 nm. Binding signals were obtained where Absorbance at 630 nm was >3-times the signal upon irrelevant antigen. […]

T1 sequence (P01031 19-1676): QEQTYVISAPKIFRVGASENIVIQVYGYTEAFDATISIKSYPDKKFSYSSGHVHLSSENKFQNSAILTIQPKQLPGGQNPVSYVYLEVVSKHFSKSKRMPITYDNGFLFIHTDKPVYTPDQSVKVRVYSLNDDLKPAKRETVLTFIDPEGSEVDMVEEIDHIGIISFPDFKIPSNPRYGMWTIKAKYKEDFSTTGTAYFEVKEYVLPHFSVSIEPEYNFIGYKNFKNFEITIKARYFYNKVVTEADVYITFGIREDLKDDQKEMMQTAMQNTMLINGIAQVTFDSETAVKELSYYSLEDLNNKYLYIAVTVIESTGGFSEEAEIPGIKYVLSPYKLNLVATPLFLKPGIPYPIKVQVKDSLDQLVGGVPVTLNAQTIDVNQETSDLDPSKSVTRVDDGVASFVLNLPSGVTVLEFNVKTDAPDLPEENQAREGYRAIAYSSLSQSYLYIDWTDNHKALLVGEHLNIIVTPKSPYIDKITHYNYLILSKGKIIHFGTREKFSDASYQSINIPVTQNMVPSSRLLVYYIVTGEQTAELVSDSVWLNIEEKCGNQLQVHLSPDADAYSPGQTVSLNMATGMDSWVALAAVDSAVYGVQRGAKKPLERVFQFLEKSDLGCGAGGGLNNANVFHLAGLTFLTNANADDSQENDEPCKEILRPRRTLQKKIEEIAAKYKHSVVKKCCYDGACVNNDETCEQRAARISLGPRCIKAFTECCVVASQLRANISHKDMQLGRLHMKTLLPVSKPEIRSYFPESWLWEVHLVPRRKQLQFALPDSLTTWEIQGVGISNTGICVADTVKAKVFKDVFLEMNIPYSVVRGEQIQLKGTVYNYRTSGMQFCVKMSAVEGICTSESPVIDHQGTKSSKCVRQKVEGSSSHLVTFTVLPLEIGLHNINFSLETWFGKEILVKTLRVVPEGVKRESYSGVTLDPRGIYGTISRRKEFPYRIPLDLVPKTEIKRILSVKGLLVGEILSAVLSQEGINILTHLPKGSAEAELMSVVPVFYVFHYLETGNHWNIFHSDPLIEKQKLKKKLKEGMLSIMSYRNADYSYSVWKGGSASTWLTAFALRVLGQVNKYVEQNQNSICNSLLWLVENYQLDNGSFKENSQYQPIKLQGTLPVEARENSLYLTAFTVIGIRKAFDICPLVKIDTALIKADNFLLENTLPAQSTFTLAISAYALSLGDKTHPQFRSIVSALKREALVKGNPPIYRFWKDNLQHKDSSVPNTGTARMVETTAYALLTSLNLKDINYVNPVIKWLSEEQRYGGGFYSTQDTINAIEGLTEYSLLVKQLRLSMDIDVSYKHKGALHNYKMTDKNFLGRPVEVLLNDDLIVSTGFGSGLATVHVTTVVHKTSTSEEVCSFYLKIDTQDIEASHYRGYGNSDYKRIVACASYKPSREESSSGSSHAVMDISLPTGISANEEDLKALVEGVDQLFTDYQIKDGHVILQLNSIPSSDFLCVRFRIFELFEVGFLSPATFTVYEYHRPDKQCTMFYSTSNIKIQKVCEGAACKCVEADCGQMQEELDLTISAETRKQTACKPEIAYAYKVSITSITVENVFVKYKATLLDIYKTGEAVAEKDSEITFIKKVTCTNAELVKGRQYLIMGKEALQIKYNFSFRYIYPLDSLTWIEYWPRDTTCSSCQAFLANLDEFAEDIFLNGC
human complement component C3, sequence (P01024 23-1663): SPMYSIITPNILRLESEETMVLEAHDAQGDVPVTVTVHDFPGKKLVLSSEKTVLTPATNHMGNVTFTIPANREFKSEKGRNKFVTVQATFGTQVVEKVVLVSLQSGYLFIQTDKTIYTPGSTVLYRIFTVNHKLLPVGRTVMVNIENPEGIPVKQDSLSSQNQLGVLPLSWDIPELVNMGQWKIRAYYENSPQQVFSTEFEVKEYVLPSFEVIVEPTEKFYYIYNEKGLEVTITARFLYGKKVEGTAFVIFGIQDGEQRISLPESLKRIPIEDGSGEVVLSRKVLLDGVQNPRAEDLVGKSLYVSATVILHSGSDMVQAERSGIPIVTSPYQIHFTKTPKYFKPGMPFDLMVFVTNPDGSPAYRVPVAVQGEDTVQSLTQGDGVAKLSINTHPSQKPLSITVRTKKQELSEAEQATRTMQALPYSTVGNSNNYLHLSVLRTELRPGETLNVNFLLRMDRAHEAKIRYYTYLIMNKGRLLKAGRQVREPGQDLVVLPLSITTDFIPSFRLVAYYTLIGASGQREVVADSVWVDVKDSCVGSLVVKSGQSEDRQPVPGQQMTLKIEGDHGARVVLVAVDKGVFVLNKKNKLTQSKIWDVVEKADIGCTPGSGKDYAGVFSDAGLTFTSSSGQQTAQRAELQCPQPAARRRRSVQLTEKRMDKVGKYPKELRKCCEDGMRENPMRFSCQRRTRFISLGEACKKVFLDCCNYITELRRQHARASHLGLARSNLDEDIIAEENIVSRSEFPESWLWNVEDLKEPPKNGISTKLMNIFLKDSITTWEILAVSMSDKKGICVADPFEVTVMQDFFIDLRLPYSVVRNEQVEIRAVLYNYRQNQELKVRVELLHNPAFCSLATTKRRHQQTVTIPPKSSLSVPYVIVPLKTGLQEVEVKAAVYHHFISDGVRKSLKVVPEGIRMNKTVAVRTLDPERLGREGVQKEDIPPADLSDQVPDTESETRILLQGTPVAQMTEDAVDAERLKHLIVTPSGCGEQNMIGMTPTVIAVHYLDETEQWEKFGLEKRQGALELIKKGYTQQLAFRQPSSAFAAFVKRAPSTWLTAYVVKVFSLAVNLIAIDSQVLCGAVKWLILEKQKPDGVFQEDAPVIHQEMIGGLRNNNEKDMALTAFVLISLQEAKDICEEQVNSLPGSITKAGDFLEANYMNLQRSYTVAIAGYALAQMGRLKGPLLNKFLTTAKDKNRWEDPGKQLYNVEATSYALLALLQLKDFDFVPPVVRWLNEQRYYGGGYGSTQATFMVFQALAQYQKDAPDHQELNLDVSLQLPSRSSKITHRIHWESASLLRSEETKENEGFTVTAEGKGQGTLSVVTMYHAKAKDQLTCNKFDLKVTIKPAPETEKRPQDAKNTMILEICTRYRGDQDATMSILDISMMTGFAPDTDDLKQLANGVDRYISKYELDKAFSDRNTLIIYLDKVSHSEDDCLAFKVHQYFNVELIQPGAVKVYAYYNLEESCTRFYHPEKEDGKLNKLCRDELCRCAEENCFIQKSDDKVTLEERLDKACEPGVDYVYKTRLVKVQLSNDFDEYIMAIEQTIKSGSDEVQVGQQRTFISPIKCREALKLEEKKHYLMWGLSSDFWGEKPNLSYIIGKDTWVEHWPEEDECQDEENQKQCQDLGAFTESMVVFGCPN
C3 protein, sequence (P01024 23-1663): as above
rat C5 protein, sequence (P08650 19-674 limits assumed): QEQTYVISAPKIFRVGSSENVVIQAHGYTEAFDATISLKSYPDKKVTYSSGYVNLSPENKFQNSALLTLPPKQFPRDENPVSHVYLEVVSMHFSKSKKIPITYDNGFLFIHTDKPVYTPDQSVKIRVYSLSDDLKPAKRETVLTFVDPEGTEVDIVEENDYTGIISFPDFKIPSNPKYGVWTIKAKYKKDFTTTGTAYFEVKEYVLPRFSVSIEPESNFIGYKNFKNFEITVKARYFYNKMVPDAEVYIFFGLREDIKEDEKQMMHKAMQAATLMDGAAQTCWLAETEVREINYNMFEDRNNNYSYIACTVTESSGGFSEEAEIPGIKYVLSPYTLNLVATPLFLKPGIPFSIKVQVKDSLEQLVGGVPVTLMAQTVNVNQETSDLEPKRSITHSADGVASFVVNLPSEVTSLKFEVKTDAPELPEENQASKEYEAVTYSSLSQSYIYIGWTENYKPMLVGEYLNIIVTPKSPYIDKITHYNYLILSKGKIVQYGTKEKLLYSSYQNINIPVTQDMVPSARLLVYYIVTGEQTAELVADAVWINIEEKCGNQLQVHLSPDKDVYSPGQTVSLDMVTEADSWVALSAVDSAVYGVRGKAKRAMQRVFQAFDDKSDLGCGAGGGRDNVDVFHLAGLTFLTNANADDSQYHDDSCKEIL
rat C5 protein, sequence (P08650 679-1681 limits assumed): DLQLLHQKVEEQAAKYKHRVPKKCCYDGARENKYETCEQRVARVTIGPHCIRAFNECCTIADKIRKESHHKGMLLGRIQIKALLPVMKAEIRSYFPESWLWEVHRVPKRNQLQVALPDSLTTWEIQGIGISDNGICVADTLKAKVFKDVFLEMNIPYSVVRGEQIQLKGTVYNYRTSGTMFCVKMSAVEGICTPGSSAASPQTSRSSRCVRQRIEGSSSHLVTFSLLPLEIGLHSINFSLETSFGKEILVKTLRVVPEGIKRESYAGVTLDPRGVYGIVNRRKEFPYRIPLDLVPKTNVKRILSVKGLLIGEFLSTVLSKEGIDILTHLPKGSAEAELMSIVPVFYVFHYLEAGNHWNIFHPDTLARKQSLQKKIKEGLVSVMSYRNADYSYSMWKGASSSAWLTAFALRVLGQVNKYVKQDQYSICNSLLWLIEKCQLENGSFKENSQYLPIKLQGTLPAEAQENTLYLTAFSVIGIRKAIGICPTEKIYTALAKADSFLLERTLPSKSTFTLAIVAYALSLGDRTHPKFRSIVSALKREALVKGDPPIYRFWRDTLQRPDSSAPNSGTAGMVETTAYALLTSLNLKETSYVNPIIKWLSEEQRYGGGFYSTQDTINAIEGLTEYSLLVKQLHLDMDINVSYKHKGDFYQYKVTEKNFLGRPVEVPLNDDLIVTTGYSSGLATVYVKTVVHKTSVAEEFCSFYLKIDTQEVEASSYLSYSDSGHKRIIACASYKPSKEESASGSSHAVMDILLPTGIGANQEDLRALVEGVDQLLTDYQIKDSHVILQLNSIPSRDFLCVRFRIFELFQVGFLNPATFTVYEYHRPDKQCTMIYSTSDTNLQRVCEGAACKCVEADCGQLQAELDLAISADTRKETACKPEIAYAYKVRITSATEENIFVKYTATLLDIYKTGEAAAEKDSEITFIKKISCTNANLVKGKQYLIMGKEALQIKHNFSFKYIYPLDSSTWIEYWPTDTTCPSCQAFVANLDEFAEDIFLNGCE

B1: hC3nb1: camelid VHH which binds C3 and C3b, PDB code 6EHG (protein)
VHH: QVQLVETGGGLVQAGGSLRLSCAASGSIFSLNAMGWFRQAPGKEREFVATINRSGGRTYYADSVKGRFTISRDNGKNMVYLQMHSLKPEDTAIYYCAAGTGWSPQTDNEYNYWGQGTQVTVSS
modifications: left off: a dimerising Fc or GST
binding to human C5 (phage ELISA) (C5 [1]): No cross-reactivity to C5 protein was observed
binding to human C3 (phage ELISA) (C3 protein): binding to human C3

B2: hC3nb1-K8: hC3nb1 with K8 ultralong CDR-H3 inserted between H74 and H75, displayed on M13 phage (protein)
VHH: QVQLVETGGGLVQAGGSLRLSCAASGSIFSLNAMGWFRQAPGKEREFVATINRSGGRTYYADSVKGRFTISRDNGTVQQKTHQVCPDGFNWGYGCAAGSSRFCTRHDWCCYDERADSHTYGFCTGNRVTNTYEFHADAKNMVYLQMHSLKPEDTAIYYCAAGTGWSPQTDNEYNYWGQGTQVTVSS
modifications: left off: large carriers
binding to human C5 (phage ELISA) (C5 [1]): displayed binding to human C5

B3: hC3nb1-K57: hC3nb1 with K57 ultralong CDR-H3 inserted between H74 and H75, displayed on M13 phage (protein)
VHH: QVQLVETGGGLVQAGGSLRLSCAASGSIFSLNAMGWFRQAPGKEREFVATINRSGGRTYYADSVKGRFTISRDNGTTVHQRTIKSGCPPGYKSGVDCSPGSECKWGCYAVDGRRYGGYGADSGVGSTYTHEFYVDAKNMVYLQMHSLKPEDTAIYYCAAGTGWSPQTDNEYNYWGQGTQVTVSS
modifications: left off: large carriers
binding to human C5 (phage ELISA) (C5 [1]): displayed binding to human C5

B4: hC3nb1-K92: hC3nb1 with K92 ultralong CDR-H3 inserted between H74 and H75, displayed on M13 phage (protein)
VHH: QVQLVETGGGLVQAGGSLRLSCAASGSIFSLNAMGWFRQAPGKEREFVATINRSGGRTYYADSVKGRFTISRDNGSIVHQKAHTSVTCPEGWSECGVAIYGYECGRWGCGHFLNSGPNISPYVSTHKYEWYVDAKNMVYLQMHSLKPEDTAIYYCAAGTGWSPQTDNEYNYWGQGTQVTVSS
modifications: left off: large carriers
binding to human C5 (phage ELISA) (C5 [1]): displayed binding to human C5

B5: hC3nb1-K149: hC3nb1 with K149 ultralong CDR-H3 inserted between H74 and H75, displayed on M13 phage (protein)
VHH: QVQLVETGGGLVQAGGSLRLSCAASGSIFSLNAMGWFRQAPGKEREFVATINRSGGRTYYADSVKGRFTISRDNGTSVLQSTKPQKSCPDGFSYRSWDDFCCPMVGRCLAPRNTYTTEFTIEAKNMVYLQMHSLKPEDTAIYYCAAGTGWSPQTDNEYNYWGQGTQVTVSS
modifications: left off: large carriers
binding to human C5 (phage ELISA) (C5 [1]): did not bind
binding to human C3 (phage ELISA) (C3 protein): did not bind

B6: hC3Nb1Loop2ΔP (protein)
VHH: QVQLVETGGGLVQAGGSLRLSCAASGSIFSLNAMGWFRQASGGGSGCPPGYKSGVDCSPGSECKWGCYAVDGRRYGGYGADSGVSGGGSKEREFVATINRSGGRTYYADSVKGRFTISRDNGKNMVYLQMHSLKPEDTAIYYCAAGTGWSPQTDNEYNYWGQGTQVTVSS
modifications: left off: a dimerising Fc or GST
Mean Kon (C5 [2]): 1.76E+05
Mean Koff (C5 [2]): 1.48E−04
Kd [3]: 1.51 nM
Mean Kon [3]: 7.32E+05
Mean Koff ([3]; in 1/s): 2.01E−04

B7: hC3Nb1 Loop 3 (protein)
VHH: QVQLVETGGGLVQAGGSLRLSCAASGSIFSLNAMGWFRQAPGKEREFVATINRSGGRTYYADSVKGSGGGSGCPPGYKSGVDCSPGSECKWGCYAVDGRRYGGYGADSGVSGGGSRFTISRDNGKNMVYLQMHSLKPEDTAIYYCAAGTGWSPQTDNEYNYWGQGTQVTVSS
modifications: left off: a dimerising Fc or GST
Mean Kon (C5 [2]): 2.37E+05
Mean Koff (C5 [2]): 1.37E−04

B8: hC3Nb1 C-Term (protein)
VHH: QVQLVETGGGLVQAGGSLRLSCAASGSIFSLNAMGWFRQAPGKEREFVATINRSGGRTYYADSVKGRFTISRDNGKNMVYLQMHSLKPEDTAIYYCAAGTGWSPQTDNEYNYWGQGTQVTVSSGGGSGCPPGYKSGVDCSPGSECKWGCYAVDGRRYGGYGADSGV
modifications: left off: a dimerising Fc or GST
Mean Kon (C5 [2]): 4.52E+05
Mean Koff (C5 [2]): 1.19E−04

B9: hC3Nb1 N-Term (protein)
VHH: TTVHQRTIKSGCPPGYKSGVDCSPGSECKWGCYAVDGRRYGGYGADSGVGSTYTHEFYVDAWGQGSSSSGSSSSGQVQLVETGGGLVQAGGSLRLSCAASGSIFSLNAMGWFRQAPGKEREFVATINRSGGRTYYADSVKGRFTISRDNGKNMVYLQMHSLKPEDTAIYYCAAGTGWSPQTDNEYNYWGQGTQVTVSS
modifications: left off: a dimerising Fc or GST
Mean Kon (C5 [2]): 6.18E+05
Mean Koff (C5 [2]): 1.18E−04

B10: hC3Nb1 Loop 2 (protein)
VHH: QVQLVETGGGLVQAGGSLRLSCAASGSIFSLNAMGWFRQAPSGGGSGCPPGYKSGVDCSPGSECKWGCYAVDGRRYGGYGADSGVSGGGSKEREFVATINRSGGRTYYADSVKGRFTISRDNGKNMVYLQMHSLKPEDTAIYYCAAGTGWSPQTDNEYNYWGQGTQVTVSS
modifications: left off: a dimerising Fc or GST
Mean Kon (C5 [2]): 2.85E+05
Mean Koff (C5 [2]): 9.09E−05

B11: 556 (protein)
CDR: TTVHQKTTRVNSCPDGYGYGDGYCYDSGCSASDCYGVDALYSYGHCGCSIYTERPRYEWYVD
modifications: Anti-C5 ultralong CDR-H3
Specificity (C5 [4]): Human and Rat
Specificity (rat C5 protein): Human and Rat

B12: 563 (protein)
CDR: TTVHQQTKKQKSCPDGWGHSDDCNCACSANAYACCKRDWLLPGPSCECSTYCVSHTYQWYV
modifications: Anti-C5 ultralong CDR-H3
Specificity (C5 [4]): Human

B13: 564 (protein)
CDR: TTVHQHTRKSGSCPDGWSDCHGSCDGVGCTGSDCVRYNARGYGRHACSGYAYTYSYEFYVN
modifications: Anti-C5 ultralong CDR-H3
Specificity (C5 [4]): Human

B14: 568 (protein)
CDR: TTVVQRTRKIVTCPDGYSYSEGCGKGDDCGGVHCCANGGVTCWYRHCCSTGTDTYSYEWYVD
modifications: Anti-C5 ultralong CDR-H3
Specificity (C5 [4]): Human

B15: 542 (protein)
CDR: TTVVQRTHKTTSCPDGYHFIEPCHSGLCWREGACNGDGICANGLGRCRTVSETSTYEFYVN
modifications: Anti-C5 ultralong CDR-H3
Specificity (C5 [4]): Human
